In the test the target is mouse-anti-β-COMP sera (polyclonal antiserum specific for the human COMP derived sequence AQEDβSDH). The test is described as follows: competitive ELISA: free peptide competes with biotinylated β-COMP on streptavidin plates for the mouse anti-β-COMP serum.

Numbered stars: 1 amine (or outer) side, 2 acyl side, 3 side chain; on linkers, the order of the positions; unused ones are H or OH. Square brackets hold non-standard residues; d marks the D form. Ends that are not written are not given here. βAsp = O=C(O)[C@H](CC(=O)[*:2])N[*:1]

In the case of AQEDSDH [α-COMP peptide (non-isomerised (α) form of the COMP peptide)], the IC50 is 0.435 µg/mL.
AQE[βAsp]SDH gave an IC50 of 0.038 µg/mL.

These data come from US20040259172A1.
